The values that follow come from article PMC5802752 (Nature Communications, 2018).

The assay deals with T1, factor H-binding protein (fHbp) variant 1.1, recombinant (Neisseria meningitidis serogroup B MC58 …, UniProt Q9JXV4).
T1 construct: not shown: His6, C-terminal, kept
The assay is described as follows: crystal structure. As to conditions: both partners purified.

B1: human Fab 1A12 (Fab, V domains shown)
VH: EVQLVQSGAELKKPGESLKISCKASGYTFTNYWVVWVRQMPGEGLEWMGSIHPRDSDARYSLSFEGRVTFSVDKSTTTAYLQWSSLKVSDSAIYYCARLSQVSGWSPWVGPWGQGTLVTVSS
VL: DIVMTQSPSSLSASVGDRVTITCRASQSISVSLNWYQQKPGKAPKVLIYAASRLQSGIPSRFSGSGSGSHFTLTISSLQPEDFATYYCQETYSDLMYTFGQGTKVEIK
B1: the binding result was “binds”.
